Reference: the supplement of paper PMC7125110
± gives the standard error. For some of these results: This sample holds only a part of the variants without activity.

B1: glmS ribozyme (parent)
chain: AUAAAAGCGCCAGAACUACAGAAAUGUAGUUGACGAGGAGGAGGUUUAUCGAAUUUUCGGCGGAUGCCUCCAAA

Experiments:
Settings in all cases: with glucosamine-6-phosphate
glucosamine-6-phosphate [1] = variants of: B1; assay: kcat; higher = faster cleavage; RNA array
Procedure, shortened: (§1)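 Using a hybridised Cy3 probe at 37 °C, barcoded ribozyme variants transcribed in situ by E. coli RNA polymerase on sequenced MiSeq chips were monitored across tiles imaged over ~14 h. The flow contained glucosamine-6-phosphate from 40 μM to 10 mM in HEPES/KCl/Mg(OAc)2 buffer. Signals were normalised to baseline and to non-cleaving reference variants before per-tile medians were fit to one- or two-exponential decays to yield kobs. Weighted Michaelis–Menten fits across concentrations gave kcat and KM.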

glucosamine-6-phosphate [2] = variants of: B1; assay: KM; higher = weaker cofactor use; RNA array
Procedure, shortened: as §1

glucosamine-6-phosphate [3] = variants of: B1; assay: self-cleavage kobs at 40 uM GlcN6P; higher = faster cleavage; RNA array
Procedure, shortened: as §1

glucosamine-6-phosphate [4] = variants of: B1; assay: self-cleavage kobs at 160 uM GlcN6P; higher = faster cleavage; RNA array
Procedure, shortened: as §1

glucosamine-6-phosphate [5] = variants of: B1; assay: self-cleavage kobs at 640 uM GlcN6P; higher = faster cleavage; RNA array
Procedure, shortened: as §1

glucosamine-6-phosphate [6] = variants of: B1; assay: self-cleavage kobs at 2500 uM GlcN6P; higher = faster cleavage; RNA array
Procedure, shortened: as §1

glucosamine-6-phosphate [7] = variants of: B1; assay: self-cleavage kobs at 10000 uM GlcN6P; higher = faster cleavage; RNA array
Procedure, shortened: as §1

Variant	kcat (glucosamine-6-phosphate [1]) [s⁻¹]	KM (glucosamine-6-phosphate [2]) [µM]	self-cleavage kobs at 40 uM GlcN6P (glucosamine-6-phosphate [3]) [s⁻¹]	self-cleavage kobs at 160 uM GlcN6P (glucosamine-6-phosphate [4]) [s⁻¹]	self-cleavage kobs at 640 uM GlcN6P (glucosamine-6-phosphate [5]) [s⁻¹]	self-cleavage kobs at 2500 uM GlcN6P (glucosamine-6-phosphate [6]) [s⁻¹]	self-cleavage kobs at 10000 uM GlcN6P (glucosamine-6-phosphate [7]) [s⁻¹]
AUAAAAGCGCCAGAACUACAGAAAUGUAGUUGACGAGGUGGAGGUUUAUCGAAUUUUCGGCGGAUGCCUGCAAA [A39U C70G]	0.000797 ± 0.00021	1500 ± 720	4.48e-05 ± 9.1e-06	6.66e-05 ± 2e-05	0.000201 ± 3.6e-05	0.000522 ± 8.8e-05	0.000713 ± 0.0001
AUAAAAGCGCCAGAACUACAGAAAUGUAGUUGACGAGGUGGAGGUUUAUCGAAUUUUCGGCGGAUGCCUACAAA [A39U C70A]	0.000394 ± 9.4e-05	558 ± 250	5.15e-05 ± 9.3e-06	7.96e-05 ± 1.2e-05	0.000187 ± 2.3e-05	0.000403 ± 6.9e-05	0.000382 ± 5.4e-05
AUAAAAGCGCCAGAACUACAGAAAUGUAGUUGACGAGGUGGAGGUUUAUCGAAUUUUCGGCGGAUGCCACCAAA [A39U U69A]	0.000214 ± 3.6e-05	2430 ± 770			5.02e-05 ± 1.2e-05	0.000105 ± 1.3e-05	0.000197 ± 5.6e-05
AUAAAAGCGCCAGAACUACAGAAAUGUAGUUGACGAGGAAGAGGUUUAUCGAAUUUUCGGCGGAUGCCUCCAAA [G40A]	0.0122 ± 0.00085	1310 ± 110	0.000363 ± 7.8e-06	0.0012 ± 0.00012	0.00372 ± 0.0003	0.00876 ± 0.0005	0.0103 ± 0.00063
AUAAAAGCGCCAGAACUACAGAAAUGUAGUUGACGAGGAAGAGGUUUAUCGUAUUUUCGGCGGAUGCCUCCAAA [G40A A52U]	0.000228 ± 7.9e-05					9.49e-05 ± 1.5e-05	0.000146 ± 2.3e-05
AUAAAAGCGCCAGAACUACAGAAAUGUAGUUGACGAGGUGGAGUUUUAUCGAAUUUUCGGCGGAUGCCUCCAAA [A39U G44U]	0.00106 ± 0.00049		8.33e-05 ± 6.8e-06	0.000143 ± 1.3e-05	0.000437 ± 3e-05	0.000955 ± 9.3e-05	
AUAAAAGCGCCAGAACUACAGAAAUGUAGUUGACGAGGUGGAGGUUUAUCGAAGUUUCGGCGGAUGCCUCCAAA [A39U U54G]	0.0173 ± 0.0074		0.000704 ± 0.00014	0.00169 ± 0.00043	0.00453 ± 0.001		0.018 ± 0.0044
AUAAAAGCGCCAGAACUACAGAAAUGUAGUUGACGAGGUGGAGGUUUAUCGAAUUUUCGGCAGAUGCCUCCAAA [A39U G62A]	< 1e-05		< 1e-05	< 1e-05	< 1e-05		
AUAAAAGCGCCAGAACUACAGAAAUGUAGUUGACGAGGUGGAAGUUUAUCGAAUUUUCGGCGGAUGCCUCCAAA [A39U G43A]	0.000177 ± 1.5e-05	1170 ± 280			5.75e-05 ± 8.5e-06	0.000139 ± 1.6e-05	0.000152 ± 1.4e-05
AUAAAAGCGCCAGAACUACAGAAAUGUAGUUGACGAGGUGGAGGUUUAUCGAGUUUUCGGCGGAUGGCUCCAAA [A39U A53G C67G]	0.00494 ± 0.00087	963 ± 280	0.000219 ± 3.9e-05		0.00186 ± 0.00023	0.00346 ± 0.00056	0.00612 ± 0.0016
AUAAAAGCGCCAGAACUACAGAAAUGUAGUUGACGAGGUGGAGGUUUAUCGAAUUUUCGGUGGAUGCCUCCAAA [A39U C61U]	< 1e-05						
AUAAAAGCGCCAGAACUACAGAAAUGUAGUUGACGAGGUGGAGGUUUAUCGUAUUUUCGGCGGAUGCCUCCAAA [A39U A52U]	0.000201 ± 4.1e-05	3930 ± 1900				9.27e-05 ± 1.2e-05	0.000141 ± 1.1e-05
AUAAAAGCGCCAGAACUACAGAAAUGUAGUUGACGAGGUGGAGGUUUAUAGAAUUUUCGGCGGAUGCCUCCAAA [A39U C50A]	1.72e-05 ± 1.5e-06			< 1e-05			
AUAAAAGCGCCAGAACUACAGAAAUGUAGUUGACGAGGUGGAGGUUUAUUGAAUUUUCGGCGGAUGCCUCCAAA [A39U C50U]	4.51e-05 ± 4.1e-06	1250 ± 570				3.23e-05 ± 9.4e-06	3.95e-05 ± 7.1e-06
AUAAAAGCGCCAGAACUACAGAAAUGUAGUUGACGAGGUGGAGGCUUAUCGAAUUUUCGGCGGAUGCCUCCAAA [A39U U45C]	0.00276 ± 0.0012			8.23e-05 ± 1.6e-05	0.000268 ± 4.7e-05	0.000599 ± 0.00011	0.002 ± 0.00034
AUAAAAGCGCCAGAACUACAGAAAUGUAGUUGACGAGGAAGUGGUUUAUCGAAUUUUCGGCGGAUGCCUCCAAA [G40A A42U]	7.24e-05 ± 1.6e-05					7.53e-05 ± 1.2e-05	5.75e-05 ± 1.2e-05
AUAAAAGCGCCAGAACUACAGAAAUGUAGUUGACGAGGAAGCGGUUUAUCGAAUUUUCGGCGGAUGCCUCCAAA [G40A A42C]	2.78e-05 ± 3.3e-06	1680 ± 670		< 1e-05			
